Molecular target: T1, λ2^315 Ig L-chain (idiotype, Id) peptide on I-E^d (mouse)
T1 peptide: ALWFRNHFVFG
Test: activation reporter or marker

B1: 4B2A1 TCR (TCR, V domains shown)
Valpha: QQKVQQSPESLIVPEGAMTSLNCTFSDSASQYFAWYRQQSGKAPKALMSIFSNGEKEEGRFTIHLNKASLHFSLHIRDSQPSDSALYLCAVRGPNTGNYKYVFGAGTRLKVIA
Vbeta: EAAVTQSPRNKVAVTGGKVTLSCNQTNNHNNMYWYRQDTGHGLRLIHYSYGAGSTEKGDIPDGYKASRPSQENFSLILELATPSQTSVYFCASGDAGQGHSDYTFGSGTRLLVI
Question: Does B1 bind?
Answer: recognises
